The target in this assay is 2526 IgG3. Briefly: ELISA. Conditions: read at the highest mAb concentration, 10 µg/ml; parent: est. 4.0; read off a plot.

This note sets out measurements from publication PMC11410209.

“BG505.SOSIP with a glycan at position 332 (Fig 5C) N332T”: the response was 3.1 Abs (450nm).
